Data as given in ChEMBL document CHEMBL1123043, “Effects of charge, volume, and surface on binding of inhibitor and substrate moieties to acetylcholinesterase” (J Med Chem, 1985).

Assays:
[1] = substrate: CC(=O)OCCS(C)(=O)=O
Description: (§1) Compound was evaluated for reversible inhibition of hydrolysis acetylcholine by acetylcholinesterase and represented as Km(app) apparent binding constant

[2] = substrate: C[Si](C)(C)CCO
Description: as §1

[3] = substrate: CS(=O)(=O)CCO
Description: as §1

[4] = substrate: CN(C)C
Description: as §1

[5] = substrate: CC(=O)CCC[N+](C)(C)[O-]
Description: as §1

[6] = substrate: C[S+](C)CCO
Description: as §1

[7] = substrate: CC(C)(C)CCO
Description: as §1

[8] = substrate: C[N+](C)(C)CCO
Description: as §1

[9] = substrate: CCCCO
Description: as §1

[10] = substrate: CSCCO
Description: as §1
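Note: apparent binding constant Km(app) for reversible inhibition of acetylcholine hydrolysis catalysed by acetylcholinesterase.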

B1: Choline O-acetyltransferase (Rattus norvegicus), P32738 (protein)
chain: MPILEKAPQKMPVKASSWEELDLPKLPVPPLQQTLATYLQCMQHLVPEEQFRKSQAIVKRFGAPGGLGETLQEKLLERQEKTANWVSEYWLNDMYLNNRLALPVNSSPAVIFARQHFQDTNDQLRFAACLISGVLSYKTLLDSHSLPTDWAKGQLSGQPLCMKQYYRLFSSYRLPGHTQDTLVAQKSSIMPEPEHVIVACCNQFFVLDVVINFRRLSEGDLFTQLRKIVKMASNEDERLPPIGLLTSDGRSEWAKARTVLLKDSTNRDSLDMIERCICLVCLDGPGTGELSDTHRALQLLHGGGCSLNGANRWYDKSLQFVVGRDGTCGVVCEHSPFDGIVLVQCTEHLLKHMMTSNKKLVRADSVSELPAPRRLRLKCSPETQGHLASSAEKLQRIVKNLDFIVYKFDNYGKTFIKKQKYSPDGFIQVALQLAYYRLYQRLVPTYESASIRRFQEGRVDNIRSATPEALAFVQAMTDHKAAMPASEKLQLLQTAMQAHKQYTVMAITGMAIDNHLLALRELARDLCKEPPEMFMDETYLMSNRFVLSTSQVPTTMEMFCCYGPVVPNGNGACYNPQPEAITFCISSFHSCKETSSVEFAEAVGASLVDMRDLCSSRQPADSKPPAPKEKARGPSQAKQS
Km [1]: 6.2 mM
Km [2]: 3.5 mM
Km [3]: 6.2 mM
Km [4]: 18 mM
Km [5]: 18 mM
Km [6]: 0.33 mM
Km [7]: 5.3 mM
Km [8]: 0.33 mM
Km [9]: 13 mM
Km [10]: 15 mM
